Key:
[1] = test system: AR-regulated genes; experiment: Validation by real-time RT-PCR, Western blot and ELISA in LNCaP EPB1 transfectants; assay type: cell-based, human
Method: Real-Time Quantitative Reverse-Transcription PCR: The method of […] et al. (Nakanishi et al., 2003, Quantitative Analysis of Breast Cancer Resistance Protein and Cellular Resistance to Flavopiridol in Acute Leukemia Patients, Clin. Cancer Res., 9: 3320-3328) was used as previously described. […] Real-time quantitative RT-PCR was then performed on the LightCycler (Roche, Indianapolis, Ind.) platform to determine the relative mRNA levels of EPB1, AR, kallikrein-2 and POV-1. The following forward and reverse primers were selected using Primer Express software and synthesized by Core Laboratory of University of Maryland School of Medicine: EPB1, sense: [NT] ID NO: 4) and antisense: [NT] ID NO: 5), sense: [NT] ID NO: 6) and antisense: [NT] ID NO: 7), Kallikrein-2, sense: [NT] ID NO: 8) and antisense: [NT] ID NO: 9), POV-1, sense: [NT] ID NO: 10) and antisense: [NT] ID NO: 11), Actin, sense: [NT] ID NO: 12) and antisense […] ID NO: 13). […] Target mRNA values were normalized using actin mRNA as an internal control. The relative quantitation of gene expression was performed using the comparative ΔΔ Ct (threshold method) using β-actin as an internal control ([…] et al., 2002, The Nonsteroidal Anti-Inflammatory Drug Sulindac Causes Down-Regulation of Signal Transducer and Activator of Transcription 3 in Human Oral Squamous Cell Carcinoma Cells, Cancer Research, 62:1004-1007). Western Blot Analysis: Briefly, total cell extracts were prepared by direct lysis of cells with buffer containing 50 mM Tris-HCl (pH 7.4), 1 mM EDTA, 250 mM NaCl, 1% Triton® X-100, 0.5 mM dithiothreitol (DTT) and 1 mM phenylmethylsulfonyl (PMSF). Protein concentrations were measured using a detergent compatible kit (BioRad, Hercules, Calif.). Proteins were resolved by SDS-PAGE and analyzed by Western blotting as described (Xia et al., 2001, Analysis of the Expression Pattern of EPB1, an ErbB-3-Binding Protein, Biochem. Biophys. Res. Commun., 289:240-244). The AR antibody was from Santa Cruz Biotechnology (Santa Cruz, Calif.), the EPB1 antibody from Upstate (Lake Placid, N.Y.), the polyclonal antibody to actin from Sigma (St. Louis, Mo.), and the POV-1 antibody was a gift. Measurement of PSA levels: Serum PSA levels were determined using a PSA ELISA kit from DSL, Inc (Webster, Tex.). […] Following a 1 h incubation and extensive washing of the plate, the wells were treated for 30 min with a second anti-PSA antibody labeled with horseradish peroxidase. After washing, the wells were treated with a tetramethylbendizine substrate for 10 min, and absorbance was read at 450 nm. The results of the microarray analysis were validated using real-time quantitative reverse-transcription PCR, Western blot, and ELISA methods. […] PSA secretion in the conditioned media of EPB1 and vector control cells was assessed by ELISA.

[2] = test system: C81 cells; experiment: C81 xenografts in female athymic nude mice; assay type: in vivo
Method: FIG. 8A-C. Manipulation of EBP1 expression affects growth of prostate cancer cells in vivo. A. Ectopic expression of EBP1 reduces the growth of androgen independent cells in athymic female mice C81 vector or EBP1 transfected cells were injected subcutaneously into female athymic mice. Tumor development with time is shown (n=10 animals, 20 sites per group). B. Tumor volumes and growth rate. Tumor volumes were calculated as described in “Materials and Methods”. Each point represents the mean±SE (10 mice per group injected at 20 sites). C. Elimination of EBP1 expression enhances growth of androgen dependent LNCaP cells in vivo. A16 lentivirus control or C13 EBP1 shRNA transduced LNCaP cells were injected subcutaneously into female athymic mice. Tumor volumes were calculated as described in “Materials and Methods”. Each point represents the mean±SE (10 mice per group injected at 20 sites). * indicates p 0.04.
Western Blot Analysis. Western blot analysis was performed as previously described (19). The Ebp1 antibody was from Upstate (Lake Placid, N.Y.), the polyclonal antibody to actin from Sigma, the AKT and phospho AKT antibodies from Cell Signaling (Beverly, Mass.) and the AGR2 antibody was previously described (20) Cell Growth Assays Cell growth measurement in complete media was performed as described using a hemocytometer (21). For soft agar growth assays, increasing concentrations of cells (as indicated) were plated in 35 mm Petri dishes in 0.3% agar in complete media and colonies were counted after 10 days of incubation (21). For studies assessing the effect of DHT, HRG or chemotherapeutic agents on cell growth, cells (5×10^3) were plated in 96 well plates in complete media. After a 24-hour attachment period, the medium was replaced with steroid free medium [phenol red free RPMI 1640 and 5% charcoal stripped fetal bovine serum (Sigma)]. After 48 hours of steroid depletion, cells were refed with fresh steroid reduced medium with or without the indicated concentrations of DHT, bicalutamide (Casodex) (10 μM), HRG or the chemotherapeutic drugs at the concentrations indicated. Relative cell growth was determined using a Promega Proliferation Reagent (Promega, Madison Wis.) as per manufacturer's instructions with absorbance being read at […] using a Dynex plate reader. Luciferase Reporter Assays Cells (5×10^4) were plated in 12 well plates in complete media. When cells reached 50-60% confluence, they were transfected using the FuGENE®-6 Reagent (Roche, Indianapolis, Ind.) according to the manufacturer's instructions. Cells were transfected with 0.5 μg of an MMTV-luciferase reporter plasmid and 5 ng of a TK Renilla plasmid (Promega, Madison, Wis.) as an internal control. Complete medium was replaced 24 h after transfection with phenol red free RPMI 1640 with CSS with or without R1881 (10^−8M). Luciferase activity was determined using the Promega Dual luciferase assay kit as described by the manufacturer. In Vivo Studies in Athymic Mice Female nude athymic NCr-nu/nu mice, 4-6 weeks of age, were purchased from the National Cancer Institute (Frederick, Md.). Animals were housed in a pathogen free environment under controlled conditions of light and humidity and received food and water ad libitum. […] Tumors were measured with calipers. Tumor volumes were calculated by the formula width^2×length/2 […]. Mean tumor volume±S.D. were calculated and plotted against time. […] Statistical Analysis Results of growth assays were analyzed using a two-sided Students t-test. […]

B1: EBP1: ErbB3 binding protein (SEQ ID NO: 2), AR corepressor, here ectopically expressed in cancer cells by stable transfection of an expression plasmid (protein, listed as Homo sapiens)
chain: MSGEDEQQEQTIAEDLVVTKYKMGGDIANRVLRSLVEASSSGVSVLSLCEKGDAMIMEETGKIFKKEKEMKKGIAFPTSISVNNCVCHFSPLKSDQDYILKEGDLVKIDLGVHVDGFIANVAHTFVVDVAQGTQVTGRKADVIKAAHLCAEAALRLVKPGNQNTQVTEAWNKVAHSFNCTPIEGMLSHQLKQHVIDGEKTIIQNPTDQQKKDHEKAEFEVHEVYAVDVLVSSGEGKAKDAGQRTTIYKRDPSKQYGLKMKTSRAFFSEVERRFDAMPFTLRAFEDEKKARMGVVECAKHELLQPFNVLYEKEGEFVAQFKFTVLLMPNGPMRITSGPFEPDLYKSEMEVQDAELKALLQSSASRKTQKKKKKKASKTAENATSGETLEENEAGD
modifications: FLAG tag
In the case of B1, the “POV-1 mRNA decrease” value ([1]; LNCaP EPB1 transfectants) is reported as “about two-fold”, the POV-1 protein decrease ([1]; LNCaP EPB1 transfectants) is reported as “about two-fold” and the “kallikrein-2 mRNA expression decrease” value ([1]; LNCaP EPB1 transfectants) is reported as “approximately 40%”. The AR protein decrease ([1]; LNCaP EPB1 transfectants, Western blot) was “more than five-fold”, the “AR mRNA down-regulation” value ([1]; LNCaP EPB1 transfectants, real-time PCR) was “more than 2 fold” and the “secreted PSA protein downregulation” value ([1]; conditioned media of LNCaP EPB1 transfectants vs controls, ELISA) was 10 fold. The “sites that developed tumors at the end of both studies” value ([2]; C81 EBP1 transfectants (vector 25/26), p=0.00001) was 10/26, the “inoculation sites with tumors on Day 28 post transplantation” value ([2]; C81 EBP1 transfectants (vector controls 24/26)) was 1/26 and the “day on which the first tumor was observed” value ([2]; C81 EBP1 transfectants s.c. in female nude mice (vector day 8)) was 20 days. For the same molecule, the “average tumor volume at the end of the first study” value ([2]; C81 EBP1 transfectants, 6 sites per group, Mean+S.E. (vector 998±206), p=0.01) was 104±70 mm^3 and the “average tumor volume, second experiment” value ([2]; C81 EBP1 transfectants, 20 sites per group (vector 561±47), p=0.0001, in mm³ (unit assumed)) was 206±54.
